The values that follow come from US20170342168A1 (Hoffmann-La Roche, published 2017).

This assay addresses T1, human neonatal Fc-receptor (FcRn) (human, UniProt P55899 24-297; P61769 21-119, limits assumed).
T1 construct: also called the receptor
Nature of the assay: FcRn affinity chromatography.

T1 sequence (P55899 24-297 limits assumed, chain 1 of 2): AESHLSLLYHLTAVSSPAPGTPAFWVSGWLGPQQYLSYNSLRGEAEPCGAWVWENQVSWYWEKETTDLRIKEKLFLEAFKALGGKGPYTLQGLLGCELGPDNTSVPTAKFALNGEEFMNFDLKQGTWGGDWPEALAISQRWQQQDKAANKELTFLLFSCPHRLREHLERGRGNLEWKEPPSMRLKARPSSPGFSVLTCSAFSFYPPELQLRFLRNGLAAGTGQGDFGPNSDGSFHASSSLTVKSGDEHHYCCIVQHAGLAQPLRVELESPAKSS
T1 sequence (P61769 21-119 limits assumed, chain 2 of 2): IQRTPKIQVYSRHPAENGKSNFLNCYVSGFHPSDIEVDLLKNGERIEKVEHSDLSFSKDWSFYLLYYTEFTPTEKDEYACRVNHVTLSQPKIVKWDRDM

For the molecule “anti-HER2 antibody with symmetric mutation D98E”, the retention time came out at 46.2 min. As for “anti-HER2 antibody with symmetric mutation E258H”, the retention time was 45.6 min. Still for that read-out and setting: as for “anti-HER2 antibody with symmetric mutation E430H”, the figure is 46.4 min; as for “anti-HER2 antibody with symmetric mutation K288E”, 45.2 min. As for “anti-HER2 antibody with symmetric mutation K290H”, the retention time was found to be 46.2 min.

With “anti-HER2 antibody with symmetric mutation K317H”, the retention time worked out at 46.3 min. For the molecule “anti-HER2 antibody with symmetric mutation L309H”, the retention time is 45.5 min. “anti-HER2 antibody with symmetric mutation N434H” returned a retention time of 52 min. In turn, “anti-HER2 antibody with symmetric mutation Q311H” returned a retention time of 46.3 min.

Regarding “anti-HER2 antibody with symmetric mutation R255D”, the retention time amounted to 41.4 min. “anti-HER2 antibody with symmetric mutation T256H”: the retention time amounted to 46 min. As to anti-HER2 antibody, wild-type, the retention time turned out to be 46.3 min.

B1: IgG1 Fc-region with L234A/L235A/P329G and H310A/H433A/Y436A (other)
chain: DKTHTCPPCPAPEAAGGPSVFLFPPKPKDTLMISRTPEVTCVVVDVSHEDPEVKFNWYVDGVEVHNAKTKPREEQYNSTYRVVSVLTVLAQDWLNGKEYKCKVSNKALGAPIEKTISKAKGQPREPQVYTLPPSRDELTKNQVSLTCLVKGFYPSDIAVEWESNGQPENNYKTTPPVLDSDGSFFLYSKLTVDKSRWQQGNVFSCSVMHEALANHATQKSLSLSPGK
notes: Symmetric mutations in both Fc chains; also called HHY-AAA
Consider B1, for which the binding result was “no binding (tested: retention time below 3 minutes)”.

B2: IgG1 Fc-region with L234A/L235A/P329G and I253A/H310A/H435A (other)
chain: DKTHTCPPCPAPEAAGGPSVFLFPPKPKDTLMASRTPEVTCVVVDVSHEDPEVKFNWYVDGVEVHNAKTKPREEQYNSTYRVVSVLTVLAQDWLNGKEYKCKVSNKALGAPIEKTISKAKGQPREPQVYTLPPSRDELTKNQVSLTCLVKGFYPSDIAVEWESNGQPENNYKTTPPVLDSDGSFFLYSKLTVDKSRWQQGNVFSCSVMHEALHNAYTQKSLSLSPGK
notes: Symmetric mutations in both Fc chains; also called IHH-AAA
Consider B2, for which the binding result is on record as “no binding (tested: retention time below 3 minutes)”.

B3: IgG1 Fc-region with L234A/L235A/P329G and I253A/H435A (other)
chain: DKTHTCPPCPAPEAAGGPSVFLFPPKPKDTLMASRTPEVTCVVVDVSHEDPEVKFNWYVDGVEVHNAKTKPREEQYNSTYRVVSVLTVLHQDWLNGKEYKCKVSNKALGAPIEKTISKAKGQPREPQVYTLPPSRDELTKNQVSLTCLVKGFYPSDIAVEWESNGQPENNYKTTPPVLDSDGSFFLYSKLTVDKSRWQQGNVFSCSVMHEALHNAYTQKSLSLSPGK
notes: Symmetric mutations in both Fc chains
Take B3: the binding result is reported as “no binding (tested: retention time below 3 minutes)”.

B4: IgG1 Fc-region with L234A/L235A/P329G and I253A/H310A (other)
chain: DKTHTCPPCPAPEAAGGPSVFLFPPKPKDTLMASRTPEVTCVVVDVSHEDPEVKFNWYVDGVEVHNAKTKPREEQYNSTYRVVSVLTVLAQDWLNGKEYKCKVSNKALGAPIEKTISKAKGQPREPQVYTLPPSRDELTKNQVSLTCLVKGFYPSDIAVEWESNGQPENNYKTTPPVLDSDGSFFLYSKLTVDKSRWQQGNVFSCSVMHEALHNHYTQKSLSLSPGK
notes: as for B3
Regarding B4, the binding result is listed as “no binding (tested: retention time below 3 minutes)”.

B5: IgG1 Fc-region with L234A/L235A/P329G and H310A/Y436A (other)
chain: DKTHTCPPCPAPEAAGGPSVFLFPPKPKDTLMISRTPEVTCVVVDVSHEDPEVKFNWYVDGVEVHNAKTKPREEQYNSTYRVVSVLTVLAQDWLNGKEYKCKVSNKALGAPIEKTISKAKGQPREPQVYTLPPSRDELTKNQVSLTCLVKGFYPSDIAVEWESNGQPENNYKTTPPVLDSDGSFFLYSKLTVDKSRWQQGNVFSCSVMHEALHNHATQKSLSLSPGK
notes: as for B3
Regarding B5, the binding result is given as “no binding (tested: retention time below 3 minutes)”.

B6: IgG1 Fc-region with L234A/L235A/P329G and H310A/H435A (other)
chain: DKTHTCPPCPAPEAAGGPSVFLFPPKPKDTLMISRTPEVTCVVVDVSHEDPEVKFNWYVDGVEVHNAKTKPREEQYNSTYRVVSVLTVLAQDWLNGKEYKCKVSNKALGAPIEKTISKAKGQPREPQVYTLPPSRDELTKNQVSLTCLVKGFYPSDIAVEWESNGQPENNYKTTPPVLDSDGSFFLYSKLTVDKSRWQQGNVFSCSVMHEALHNAYTQKSLSLSPGK
notes: as for B3
Take B6: the binding result is given as “no binding (tested: retention time below 3 minutes)”.
